Results as given in patent publication US20100124555A1, “Compositions and Methods for Treating Pancreatic Tumors” (UNIVERSITE DE LA MEDITERRANEE, priority 2007, published 2010).

Key:
[1] = system: PANC-1 cells; test: MTT cell growth and proliferation assay, PANC-1; format: cell-based, human; conditions: PANC-1, increasing concentrations of antibody, 24 h
Method: Cell proliferation was determined using MTT assay as previously described (Mosmann et al., 1983 J Immunol Methods, 65(1-2):55-63). Briefly, cells were seeded at subconfluence in appropriate complete media containing 10% FCS in 96-well culture plates. Media were replaced for 24 h by fresh media with 10% inactivated FCS, including increasing concentrations of antibodies directed against FAPP (pAbL64, mAbJ28 and mAb16D10). Cells were washed with PBS and incubated with 100 μl of MTT (0.5 mg/ml) in complete media for 3 h, washed with PBS and finally incubated with DMSO for 30 min at 37° C. Cell growth was determined by measuring absorbance at 550 nm using a MR 5000 microplate spectrophotometer. All independent determinations were done in triplicate and compared to control.

[2] = system: SOJ-6 cells; test: Effect of antibodies on SOJ-6 cell proliferation (Example 11); format: cell-based, human
Method: The effects of the IgM antibody 16D10 and the chimeric antibody rec16D10 on the proliferation of SOJ-6 cells were examined. Cells were incubated in culture with no antibodies, with various amounts of 16D10 or rec16D10 antibodies, or with an irrelevant IgG antibody. Antibody 16D10 reduced cell proliferation by approximately 50% at either 25 or 50 μg/ml, while rec16D10 reduced proliferation by more than 20% and more than 35% at 25 and 50 μg/ml, respectively (FIG. 18).

[3] = system: Bcl-2, Bax, caspases 8 and 9, PARP in SOJ-6 cells; test: SDS-PAGE and western blot of apoptosis proteins; format: cell-based, human; conditions: SOJ-6 cells, 24 h
Method: SOJ-6 cells were grown in 6-well culture plates in RPMI 1640 medium with 10% FCS. At subconfluency, the medium was removed and replaced for 24 hours by fresh RPMI medium with 10% inactivated FCS. SOJ-6 cells were then incubated with mAb16D10 or Cisplatin for 24 hours. At the end of incubation, cells were washed three times with ice-cold PBS (without […] and Mg^++) harvested and pelleted by centrifugation. Pellets were washed twice and lysed at 4° C. in 0.5 ml of lysis buffer (10 mM Tris-HCl pH 7.4, 150 mM NaCl, 1% Triton X-100, 1 mM benzamidine and phosphatase inhibitors). After lysis, homogenates were clarified by centrifugation at 10,000 g for 10 min at 4° C. An aliquot was saved for protein determination using the bicinchoninic acid assay (Pierce, Rockford, Ill.). Proteins (50 μg/lane) in reducing SDS buffer were separated onto 10, 12, or 15% polyacrylamide with 0.1% SDS (according to the molecular weight range of proteins to be separated). After electrophoretic migration, proteins were silver stained. Alternatively, proteins were transferred onto nitrocellulose membranes using a Mini Transblot electrophoretic cell (BioRad, Hercule, Oreg.), and transferred proteins were immunodetected by using appropriate primary and secondary antibodies. After washes, membranes were developed with a chemoluminescent substrate according to the manufacturer's instructions (Roche Diagnostics, Switzerland). In each experiment, a control was included by omitting primary antibodies or by using a non-immune serum.

[4] = system: cell surface antigens of fixed SOJ-6 cells; test: FACS cell surface binding stability on fixed SOJ-6 cells; set-up: species or system human; conditions: preliminary FACS experiments
Excerpt: Taking in account that most of the antibodies that have been studied so far at Innate Pharma, have kon rate association constants ranging from 5×10^5 to 5×10^6 M^−1s^−1, one can estimate that the recombinant 16D10 antibody bivalent affinity is in the nanomolar order (e.g., 10 to 1 nanoM) which is compatible with the industrial development of a therapeutic antibody.

[5] = Tissue cross-reaction study (staining of healthy tissues); conditions: non-specific crossreactivity
Method: The staining specificity of the IgM 16D10 and chimeric IgG rec16D10 antibodies was assessed by examining their respective staining of various healthy tissues. […] Staining with the chimeric antibody reel 6D10, in contrast, was negative on each of these healthy tissues.

[6] = system: E-cadherin in PANC-1 cells; test: Immunofluorescence of E-cadherin, PANC-1; format: cell-based, human; conditions: PANC-1 treated or not with mAb16D10
[7] = system: SOJ-6 cells; test: Cell-cycle distribution by propidium iodide flow cytometry, SOJ-6; format: cell-based, human; conditions: SOJ-6 after mAb16D10 treatment
Method: Cells were washed twice using cold PBS 1×/BSA 0.2%/Sodium Azide 0.05% buffer. Staining was performed using the different antibodies during 1H at 4° C. into round 96-well plates using 5×10^4 cells per well. Cells were then washed twice before being incubated with secondary reagents. After two washes, cells were re-suspended before acquisition into PBS1X/Formaldehyde 1%. Stainings were acquired on a FACScan (Becton Dickinson, San Jose, Calif.) and results were analysed using FlowJo Software. SOJ-6 cells pre-treated or not with 5 μg/ml aphidicolin (a reversible inhibitor of eukaryotic nuclear DNA replication, which blocks the cell cycle at early S-phase) for 6 h, were then incubated with mAb16D10 or irrelevant IgM used as a negative control. Cells were released from culture plates with a non-enzymatic cell dissociation solution, washed with PBS^+/+, fixed with 70% ethanol at −20° C. and washed with PBS^+/+. The cells were resuspended in a solution of 400 μg/ml propidium iodide in isoflow buffer and were incubated for 30 min at room temperature as already described [Mi-Lian et al., 2004]. Cell-cycle distribution was detected by flow cytometry and analyzed by Mod Fit software (Verity Software House, Inc., Topsham, Me.). The red fluorescence of single events was recorded using excitation and emission at 488 nm and at 610 nm respectively, to measure the DNA index.
We next wished to know whether mAb16D10-induced apoptosis was due, in part, to the arrest of the cell cycle. Cell cycle distribution of the SOJ-6 cells after treatment was assessed by observing DNA profiles following SOJ-6 cells pre-treated not or with aphidicolin, treated not or with mAb16D10. Each experiment was carried out in triplate. We used a specific DNA marker, Propidium Iodide, to determine the different phases of the cell cycle by flow cytometry. […] Indeed, the shift of cells from the G2/M to the G1/S phase and from the G1/S to the apoptosis was also observed following aphidicolin treatment. […]

B1: 16D10: IgM monoclonal antibody recognizing FAPP/BSDL; producing cells deposited with the CNCM under the number I-3188 (antibody, listed as Mus musculus, V domains shown)
VH: QVQLQQSDAELVKPGASVKISCKASGYTFTDHAIHWVKQKPEQGLEWIGYISPGNDVIKFNEKFKGKATLTADKSSSTAYMQLNSLTSEDSAVYFCKRSEGGVFDYWGQGTTLTVS
VL: NIMMTQSPSSLAVSAGEKVTMSCKSSQSVLYSSNQKNFLAWYQQKPGQSPKLLIYWASTRESGVPDRFTGSGSGTDFTLTISSVQAEDLAVYYCHQYLSSYTFGGGTKLEIK
For B1, the “% growth of cells” value [1] was “unable to cause a decrease in growth or number of PANC-1 cells”, the “reduction of SOJ-6 cell proliferation” value ([2]; 25 μg/ml) was “approximately 50%” and the “reduction of SOJ-6 cell proliferation” value ([2]; 50 μg/ml) was “approximately 50%”. The Bax protein level [3] was “increase of Bax protein”, the “anti-apoptotic protein Bcl-2 level” value [3] was “decrease of the anti-apoptotic protein Bcl-2” and the “mediators of induced apoptosis (caspases, PARP cleavage)” value [3] was “mediated via caspases 8 and 9, and poly-ADP ribose polymerase (PARP) cleavage”. The “stability of staining on fixed SOJ-6 cells” value [4] was “seemed stable”, the “staining of healthy tissues (tonsils, salivary gland, peripheral nerve, eyes, bone marrow, ovary, oviduct, parathyroid, prostate, spleen, kidney, adrenals, testes, thymus, ureters, uterus, bladder)” value [5] was “positive staining” and the “E-cadherin at the plasma membrane” value [6] was “did not express E-cadherin at their plasma membrane”. For the same molecule, the apoptotic cells [7] was 6%, the “cells in G1/S” value [7] was 96% and the “cells in G2/M phase” value [7] was 4%.
